B1: Tethering factor for nuclear proteasome cut8 (Schizosaccharomyces pombe (strain ATCC 38366 / 972)), P38937 (parent)
chain: METLSYSQIKKRKADFDEDISKRARQLPVGEQLPLSRLLQYSDKQQLFTILLQCVEKHPDLARDIRGILPAPSMDTCVETLRKLLINLNDSFPYGGDKRGDYAFNRIREKYMAVLHALNDMVPCYLPPYSTCFEKNITFLDAATNVVHELPEFHNPNHNVYKSQAYYELTGAWLVVLRQLEDRPVVPLLPLEELEEHNKTSQNRMEEALNYLKQLQKNEPLVHERSHTFQQTNPQNNFHRHTNSMNIGNDNGMGWHSMHQYI
partner: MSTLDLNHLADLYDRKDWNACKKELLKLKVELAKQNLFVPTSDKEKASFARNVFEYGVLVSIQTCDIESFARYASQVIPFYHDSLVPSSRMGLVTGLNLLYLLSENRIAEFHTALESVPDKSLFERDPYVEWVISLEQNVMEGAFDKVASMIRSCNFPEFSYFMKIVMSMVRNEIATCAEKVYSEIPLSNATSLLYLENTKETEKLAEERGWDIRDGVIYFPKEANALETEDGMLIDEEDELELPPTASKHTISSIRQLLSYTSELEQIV
B2: Tethering factor for nuclear proteasome cut8 (Schizosaccharomyces pombe (strain ATCC 38366 / 972)), P38937 (parent)
chain: B1 chain
partner: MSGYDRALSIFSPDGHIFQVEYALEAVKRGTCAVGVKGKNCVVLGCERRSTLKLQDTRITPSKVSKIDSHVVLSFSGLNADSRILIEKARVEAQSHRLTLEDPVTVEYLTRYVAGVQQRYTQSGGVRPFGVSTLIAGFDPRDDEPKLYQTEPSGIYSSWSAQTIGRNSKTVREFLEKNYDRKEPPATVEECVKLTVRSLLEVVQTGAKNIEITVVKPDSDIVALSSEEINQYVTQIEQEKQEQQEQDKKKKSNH

Variants of: B1
Details: with rpn12_schpo rpn12, P50524

effect of a mutation on the interaction | Variant
decreasing interaction | K10R;K11R;K13R;K22R;K44R;K57R

Variants of: B2
Details: with psa4_yeast PRE6, P40303

effect of a mutation on the interaction | Variant
decreasing interaction | K10R;K11R;K13R;K22R;K44R;K57R

— IntAct's records for PubMed 16096059
